This passage reports FRET efficiency (1:15 ratio) results from article PMC8341984.

The target of this experiment is CFP-cA1-cA1, two chicken ASIC1 subunits concatenated in a dimer with an N terminal CFP (chicken) (UniProt Q1XA76). Description: FRET or BRET; FLIM-FRET: lifetime of the CFP donor at the plasma membrane of single live HEK293T ASIC1 KO cells co-transfected at varying cDNA ratios; multi-photon excitation at 860 nm, single exponential fits. (In general: Bioluminescence resonance energy transfer reports proximity on the nanometre scale.)

As for “C4 YFP, chicken ASIC1 with YFP at the C4 position of the C tail (from UniProt Q1XA76 1-527) (natural protein)”, the FRET efficiency (1:15 ratio) is 15%.
